The target of data set [1] is T1, Aβ42 (Homo sapiens, UniProt P05067).
T1 construct: Recombinant Aβ42, Ultrapure, was purchased from rPeptide, Bogart, Ga., USA; purchased rPeptide, Bogart, Ga., USA
The data set is described as follows: Sandwich immunoassay (6E10) for Aβ oligomers. The format is biochemical. As to conditions: 2:1 and 1:1 molar ratios of inhibitor:Aβ42; from 4 and 8 h. On the procedure:
These inhibitors were also tested in an immunoassay technique for the detection of early-stage Aβ oligomers. This assay uses monoclonal anti-Aβ antibody 6E10 to capture Aβ from solution and a biotinylated form of 6E10 as the detection antibody, in a sandwich system. Monomeric Aβ has only a single 6E10 epitope, which is occupied by the capture antibody, and so it cannot subsequently bind to the detection antibody. On the other hand, multimeric Aβ has binding sites available for both capture and detection, giving rise to a strong immunoassay signal. In Aβ aggregation time-course experiments, this assay produces a signal before the ThT method, when only small oligomers are present.
The sandwich immunoassay used follows the method described previously by Taylor et al (28, 30). Briefly, 96-well ELISA plates (Maxisorb) were coated with mouse monoclonal antibody 6E10 diluted 1:1000 in assay buffer (Tris-buffered saline (TBS), pH 7.4, containing 0.05% gamma globulins and 0.005% Tween 20). […] Enhancer solution was added and the plates were read using the time-resolved fluorescence setting for europium on a Wallac Victor 2 plate reader.
This is a more sensitive test than the ThT assay for the detection of early oligomeric forms of Aβ [28]. […] Enhancer solution was added and the plates were read on a Wallac Victor 2 plate reader, using the time-resolved fluorescence setting for europium.

In data set [2] the target is T1, Aβ42. The data set is described as follows: Atomic force microscopy of incubated Aβ42. As to conditions: 1:2 molar ratio RI-OR2-TAT:Aβ42; Aβ42 25 μM, 24 h. The format is biochemical. Here is the method:
Aβ42 was incubated at 25 μM in the presence or absence of 12.5 μM RI-OR2-TAT in PBS, pH 7.4, for 24 h. Samples were diluted 1:10 in PBS and then a 2 μl aliquot was deposited onto the surface of freshly cleaned mica and allowed to dry.
Images were obtained in tapping mode using a Multimode™ SPM NanoScope IIIa microscope (Digital Instruments, New York, USA). Silicon cantilever tips measuring 125 μm long, 30 μm wide and with a tip radius <10 nm were used (Budget Sensors, Bulgaria). The resonance frequency was 300 kHz and force constants 40 Nm. All images were first order flattened and edited using WSxM 5.0 Develop 4.3 software, (Nanotech, Madrid, Spain).

Data set [3] can be described thus: Nanoparticle Tracking Analysis (NTA). The data set is classed as physicochemical. The source says:
The particles were investigated by Nanoparticle Tracking Analysis (NTA) which is a method for visualizing and analyzing particles in liquids that can be used to determine the size of individual particles by tracking their rate of Brownian motion.

Data set [4] relates to SHSY-5Y cells. Description: MTT cell viability assay, toxicity of PINPs alone. As to conditions: 10 μM PINPs, 24 hours. The format is cell-based. Here is the method: SHSY 5Y cells were grown and maintained in DMEM (Dulbecco's Modified Eagle Medium) supplemented with FBS under standard mammalian cell culture conditions. During treatment cells were kept in Optimem plus or minus peptide liposomes in 96 well plates at 20000 cells per well for 24 hours, again under standard culture conditions. For cell protection assays 5 μM of pre-aggregated Aβ1-42 was added at the same time as peptide liposomes. Cell viability was assessed for four wells for each treatment using a Promega CellTiter assay kit.
(In general: Tetrazolium dyes change colour on reduction, which living cells bring about.)

Non-standard residues stand in square brackets, D forms with d. Residues, ends and D or L forms follow the SMILES beside them. No end group written: not given here.

T1 sequence (P05067 672-713 limits assumed): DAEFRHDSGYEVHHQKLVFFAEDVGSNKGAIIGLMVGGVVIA

As for `CC(=O)N[C@H](CCCNC(=N)N)C(=O)NCC(=O)N[C@H](Cc1ccccc1)C(=O)N[C@H](Cc1ccccc1)C(=O)N[C@@H](C(=O)N[C@H](CC(C)C)C(=O)N[C@H](CCCCN)C(=O)NCC(=O)N[C@H](CCCNC(=N)N)C(=O)N[C@H](CCCNC(=N)N)C(=O)N[C@H](CCCNC(=N)N)C(=O)N[C@H](CCCNC(=N)N)C(=O)N[C@H](CCC(N)=O)C(=O)N[C@H](CCCNC(=N)N)C(=O)N[C@H](CCCNC(=N)N)C(=O)N[C@H](CCCCN)C(=O)N[C@H](CCCCN)C(=O)N[C@H](CCCNC(=N)N)C(=O)NCC(=O)N[C@H](Cc1ccc(O)cc1)C(N)=O)C(C)C` [RI-OR2-TAT, Ac-rGffvlkGrrrrqrrkkrGy-NH2] (Ac-[dR]G[dF][dF][dV][dL][dK]G[dR][dR][dR][dR][dQ][dR][dR][dK][dK][dR]G[dY]-NH2), the “development of immunoassay signal (oligomer formation)” value in data set [1] is recorded as “considerably reduced”. Further, the “oligomer formation in AFM images” value in data set [2] is reported as “clear inhibition of oligomer formation”.

Compound “PINPs: RI-OR2-TAT covalently attached to nanoliposomes (cholesterol:sphingomyelin [1:1] with 2.5% maleimide) via an additional cysteine (Ac-[dR]G[dF][dF][dV][dL][dK]G[dR][dR][dR][dR][dQ][dR][dR][dK][dK][dR]G[dY][dC]; not fully specified (residue 21); also: C-terminal D-Cys coupled via its thiol to maleimide lipid of nanoliposome)” registered an average diameter in data set [3] of 130 nm. For the same compound, in data set [4], the toxicity to cells result was “not toxic to cells”. Moreover, in data set [4] (untreated cells 3.608, lysed cells 0.654), the “Absorbance units (560 nm)” value was 3.610 Absorbance units.

Values taken from US9579358B2, “Compositions for binding to amyloid proteins” (LANCASTER UNIVERSITY BUSINESS ENTERPRISES LIMITED, priority 2011, dated 2017).
